Consider 13 molecules from US20250270343A1 (Alector, published 2025).

Positions count from the first letter of the chain named.

T1: full-length untagged human GPNMB expressed on cells (human, UniProt Q14956 23-572)
T1 sequence: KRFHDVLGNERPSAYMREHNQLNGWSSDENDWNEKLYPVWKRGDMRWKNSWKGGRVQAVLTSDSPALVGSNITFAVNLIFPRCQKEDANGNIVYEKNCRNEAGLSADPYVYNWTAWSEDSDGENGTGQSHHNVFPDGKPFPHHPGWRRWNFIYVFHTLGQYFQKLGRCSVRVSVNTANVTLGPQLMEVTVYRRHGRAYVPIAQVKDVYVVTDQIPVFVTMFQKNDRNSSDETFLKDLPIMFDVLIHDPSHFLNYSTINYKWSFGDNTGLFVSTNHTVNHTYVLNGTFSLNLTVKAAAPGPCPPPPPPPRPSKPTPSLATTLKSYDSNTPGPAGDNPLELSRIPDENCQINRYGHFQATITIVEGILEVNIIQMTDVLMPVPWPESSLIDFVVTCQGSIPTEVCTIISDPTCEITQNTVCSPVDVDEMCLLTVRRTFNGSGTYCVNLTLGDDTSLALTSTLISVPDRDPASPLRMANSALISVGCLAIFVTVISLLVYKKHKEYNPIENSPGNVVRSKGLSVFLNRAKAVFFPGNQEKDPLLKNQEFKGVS

B1: anti-GPNMB antibody GPN-11 (antibody, human IgG1, V domains shown)
VH: QVQLQQPGAELVKPGASVKLSCKASGYTFTSYWMHWVKQRPGQGLEWIGEINSSNGRTNYNEKFKTKATLTVDRSSSTAYMQLSSLTSEDSAVYYCARLGYYSGSPYPYYAMDCWGQGTSVTVSS
VL: DIQMTQSPASLSVSVGETVTITCRASENIYSNLAWYQQKQGKSPQLLVYAATNLADGVPSRFSGSGSGTQYSLKINSLQSEDFGSYYCQHFWNTPPTFGGGTKLEIK
notes: chimeric
B2: anti-GPNMB antibody GPN-08 (antibody, human IgG1, V domains shown)
VH: QVQLQQPGAELVKPGASVKLSCRASGYTFTSYWLHWVKQRPGQGLEWIGEINPSDGRTNYIEKVKTKATLTVDKSSSTAYMQLSSLTSEDSAVYYCARSGGNYAWFAYWGQGTLVTVSA
VL: DIVMTQSHKFMSTSVGDRVSITCKASQDVSPSVAWYQQRPGQSPKLLIYSASYRYTGVPDRFTGSGSGTDFTFTISSVQAEDLAVYYCQQHYSIPLTFGAGTKLELK
notes: chimeric
B3: anti-GPNMB antibody GPN-34 (antibody, human IgG1, V domains shown)
VH: EVKLVESGGGLVQPGRSLKLSCAASGFNFYDYWMGWVRQAPGKGLEWIGEINKDSRTINYTPFLKDRFTISRDNAQNTLYLQMSKLGSEDTAIYYCAREGRVPFDYWGQGVMVTVSS
VL: DIQMTQSPSSMSVSLGDTVTIPCRASQDVGSYVNWFQQKPGKSPRHMIYRATNLADGVPSRFSGSRSGADYSLTISSLESEDVADYHCQQYAEYPLTFGSGTKLEIK
notes: chimeric
B4: anti-GPNMB antibody GPN-01 (antibody, human IgG1, V domains shown)
VH: QVQLQQSGAELAKPGASVKLSCKASGYNFTNYCIHWVKQRPGQGLEWIGYINPSTGYTEYNQKFKDKATLTADKSSTTAYMQLSSLTSEDSAVYYCARGRYDEFTYWGQGTLVTVSA
VL: DIVLTQSPASLAVSLGQRATISCRASKSVSTSTYSYMHWYQQKPGQPPKLLIYLASNLESGVPARFSGSGSGTDFTLNIHPVEEEDAATYYCQHSRELPPTFGGGTKLEIK
notes: chimeric
B5: anti-GPNMB antibody GPN-24 (antibody, human IgG1, V domains shown)
VH: QVQLQQPGAELVKPGASVKMSCKASGYTFTSYWITWVKQRPGQGLEWIGDIHPGSGRSNYNEKFKNKATLNVDTSSSTVYMQLSSLTSEDSAVYYCARDYLFAYWGQGTLVTVSA
VL: DIQMTQSPSSLSASLGERVSLTCRASQEISGYLSWLQQKPDGTIKRLIYSTSTLDSGVPKRFSGSRSGSDYSLTISSLESEDFADYYCLQYTSSPPTFGGGTKLEIK
notes: chimeric
B6: anti-GPNMB antibody GPN-26 (antibody, human IgG1, V domains shown)
VH: EVQLQQSGPELVKPGASVKISCKASGYSFTGYYMNWVRQSPEKSLEWIGEINPSTGITTYNQKFKAKATLTVDKSSNTAFMQLKSLTSEDSAVYYCARPASWFDYWGQGTLVTVSA
VL: B5 VL with Y32H, S50A, T51A, T92A, S94Y, P96Y
notes: chimeric
B7: anti-GPNMB antibody GPN-30 (antibody, human IgG1, V domains shown)
VH: EVQLQQSGPELVNPGASVRISCKASGYSFTGYYMNWVKQSPEKSLEWIGEINPNTGFTTYNQNFKAKATLTVDKSSSTAYIQLKSLTSEDSAVYYCTRPSPSFDYWGQGTTLTVSS
VL: B5 VL with V19G, Y32H, S50A, T51A, T92A, S94Y, P96Y
notes: chimeric
B8: anti-GPNMB antibody GPN-07 (antibody, human IgG1, V domains shown)
VH: QVQLQQSGAEQVKPGASVKLSCKASGYTFTSYYMYWVKQRPGQGLEWIGEINPSNGGTYFNEKFKSKATLTVDKSSSTAYMHLSSLTSEDSAVYYCTRGGTYYAYWGQGTLVTVSA
VL: B5 VL with I29M, Y32H, S50A, T51A, T92A, S94Y, P96Y
notes: chimeric
B9: anti-GPNMB antibody GPN-22 (antibody, human IgG1, V domains shown)
VH: QVQLQQPGAERVKPGASVKMSCKASGYTFTSYWITWVKQRPGQGLEWIGDIFPGSGSTNYHEKFKSKATLTVDTSSSTAYMQLSSLTSEDSAVYYCSRGYFGSSFSDYWGQGTSVTVSS
VL: B5 VL with A25T, T92A, G100S
notes: chimeric
B10: anti-GPNMB antibody GPN-09 (antibody, human IgG1, V domains shown)
VH: B8 VH with Q11L, M34I, S66N, H82Q, T101N
VL: B5 VL with Y32H, S34G, S50A, T51A, S52L, T92A, S94Y, P96Y
notes: chimeric
B11: anti-GPNMB antibody GPN-31 (antibody, human IgG1, V domains shown)
VH: B6 VH with R38K, S44N, S54N, I57G, N77T, F80Y, A97T
VL: B5 VL with Y32H, S50A, T51A, S65R, T92A, S94Y, P96Y, E105A
notes: chimeric
B12: anti-GPNMB antibody GPN-25 (antibody, human IgG1, V domains shown)
VH: B6 VH with R38K, S54G, T55S, N77S, F80Y, M81L, D104A
VL: B5 VL with L21F, T22I, Y32H, S50A, T51A, T92A, S94Y, P96Y
notes: chimeric
B13: anti-GPNMB antibody GPN-43 (antibody, human IgG1, V domains shown)
VH: EVQLQQSGPELVKPGASVKISCKASGYTFTDYYMNWVRQSHGKSLEWIGDINPYHGGSTYNQKIKVKATLTVDKSSSTAYMELRSLTSEDSAVYYCARNWPYFDYWGQGTTLTVSS
VL: DIQMTQSPASLSASVGETVTITCRASENIYSFLVWYQQKQGKSPQLLVYNAKTLAEGVPSRFSGSGSGTQFSLKISSLQPEDFGSYYCQHHFGTPPYTFGGGTKLEIK
notes: chimeric

In the first assay the target is T1, full-length untagged human GPNMB …. The assay can be described thus: cell-based or functional assay.
B1: the “CD40 (FoB)” value worked out at 1.7 FoB, the “CD80 (FoB)” value is 1.25 FoB, the “GCase (FoB)” value was 1.24 FoB and the “PDL1 (FoB)” value was 1.64 FoB.

On to B2, for which the “CD40 (FoB)” value was determined as 1.35 FoB, the “CD80 (FoB)” value was 1.29 FoB, the “GCase (FoB)” value was found to be 1.18 FoB and the “PDL1 (FoB)” value was determined as 1.59 FoB.

For B3, the “CD40 (FoB)” value is 1.52 FoB, the “CD80 (FoB)” value was 1.36 FoB, the “GCase (FoB)” value worked out at 1.76 FoB and the “PDL1 (FoB)” value was determined as 1.56 FoB.

For B4, the “CD40 (FoB)” value was 1.74 FoB, the “CD80 (FoB)” value was found to be 1.36 FoB, the “GCase (FoB)” value came out at 1.05 FoB and the “PDL1 (FoB)” value amounted to 1.7 FoB.

Turning to B5, the “CD40 (FoB)” value came to 1.56 FoB, the “CD80 (FoB)” value came to 1.2 FoB, the “GCase (FoB)” value turned out to be 1.22 FoB and the “PDL1 (FoB)” value came to 1.48 FoB.

As for B6, the “CD40 (FoB)” value amounted to 1.91 FoB, the “CD80 (FoB)” value worked out at 1.4 FoB and the “PDL1 (FoB)” value is 1.88 FoB.

Consider B7, for which the “CD40 (FoB)” value was 1.75 FoB, the “CD80 (FoB)” value is 1.34 FoB, the “GCase (FoB)” value was determined as 1.27 FoB and the “PDL1 (FoB)” value was 1.64 FoB.

Regarding B8, the “CD40 (FoB)” value came to 1.39 FoB, the “CD80 (FoB)” value worked out at 1.29 FoB, the “GCase (FoB)” value came to 2.13 FoB and the “PDL1 (FoB)” value came to 1.67 FoB.

On to B9, for which the “CD40 (FoB)” value was 1.7 FoB, the “CD80 (FoB)” value worked out at 1.16 FoB, the “GCase (FoB)” value amounted to 1.21 FoB and the “PDL1 (FoB)” value was 1.76 FoB.

On to B10, for which the “CD40 (FoB)” value worked out at 1.49 FoB, the “CD80 (FoB)” value came to 1.19 FoB, the “GCase (FoB)” value is 1.26 FoB and the “PDL1 (FoB)” value is 1.5 FoB.

As to B11, the “CD40 (FoB)” value turned out to be 1.9 FoB, the “CD80 (FoB)” value amounted to 1.44 FoB, the “GCase (FoB)” value was 1.22 FoB and the “PDL1 (FoB)” value stood at 1.82 FoB.

As for B12, the “CD40 (FoB)” value was 1.68 FoB, the “CD80 (FoB)” value worked out at 1.41 FoB, the “GCase (FoB)” value is 1.24 FoB and the “PDL1 (FoB)” value was 1.73 FoB.

On to B13, for which the “CD40 (FoB)” value was found to be 1.06 FoB, the “CD80 (FoB)” value is 1.08 FoB, the “GCase (FoB)” value is 1.01 FoB and the “PDL1 (FoB)” value is 1.05 FoB.

A further assay shares this target. Nature of the assay: FACS, FS293-huGPNMB+ cells. How it is done: Recombinant anti-GPNMB antibodies of the present disclosure were examined for their ability to bind human and/or mouse GPNMB expressed on Freestyle293-huGPNMB+ or B16F10 cells, respectively. B16F10 cells are a murine melanoma cell line from a C57BL/6J mouse that endogenously express high levels of mouse GPNMB. The antibodies were also tested for their ability to bind to a human macrophage cell line (U937 cells) engineered to express human GPNMB. Cells were harvested, plated at 100,000 cells/well in a 96-well round bottom plate, and incubated in 100 μl FACS buffer (PBS containing 2% FBS, 2 mM EDTA) containing anti-GPNMB monoclonal antibodies of the present disclosure for 30 minutes on ice. Cells were then washed and incubated in 100 ul FACS buffer containing 1 μg/ml APC-conjugated anti-human IgG secondary antibody for 30 minutes in ice. Cells were washed twice in cold FACS buffer and acquired on a BD FACS Canto. Data analysis and calculation of MFI values was performed with FlowJo (TreeStar) software version 10.0.7.
Importantly, several anti-GPNMB antibodies of the present disclosure also bound to the human macrophage cell line U937 cells engineered to express human GPNMB (U937/huGPNMB+) (FIG. 2C). In FIG. 2C, the first data point in each pair corresponds to U937/huGPNMB+ cells, and the second data point in each pair corresponds to U937/huGPNMB− cells. No anti-GPNMB antibodies bound to U937 cells deficient in human GPNMB expression (U937/huGPNMB−).
B1: the “MFI fold over background” value stood at 56.2 fold.

For B2, the “MFI fold over background” value was found to be 74.4 fold.

Take B3: the “MFI fold over background” value was 125 fold.

Take B4: the “MFI fold over background” value worked out at 43.2 fold.

Take B5: the “MFI fold over background” value stood at 59.9 fold.

With B6, the “MFI fold over background” value was found to be 46.3 fold.

As for B7, the “MFI fold over background” value came to 34.4 fold.

For the molecule B8, the “MFI fold over background” value is 66.5 fold.

B9: the “MFI fold over background” value worked out at 44.8 fold.

As for B10, the “MFI fold over background” value is 35.1 fold.

On to B11, for which the “MFI fold over background” value came out at 53.8 fold.

For the molecule B12, the “MFI fold over background” value is 42.7 fold.

For a further assay the target is unchanged. Nature of the assay: FACS titration, FS293-huGPNMB+ cells. How it is done: Cell-based binding measurements were also performed to measure the apparent affinities of anti-GPNMB antibodies of the present disclosure to cell-surface expressed GPNMB. Serial dilutions of the monoclonal anti-GPNMB antibodies were added to 100,000 Freestyle293-huGPNMB+ or B16F10 cells and allowed to achieve binding equilibrium at 4° C. After addition of fluorescently labeled secondary antibody and brief washing steps, MFI values as a function of titrated antibody concentration was recorded via FACS analysis. Curves were fit using nonlinear regression analysis with Graphpad Prism 6 software.
Regarding B1, the EC50 (in general, the midpoint of the concentration-response curve) turned out to be 0.3 nM.

As for B2, the EC50 came to 0.87 nM.

On to B3, for which the midpoint of the response, the EC50, lay at 0.41 nM.

B4 gave a concentration for a half-maximal effect (EC50) of 0.17 nM.

B5 registered an EC50 of 0.22 nM.

B6 yielded an EC50 of 1.09 nM.

As to B7, the half-maximal effective concentration (EC50) was 1.12 nM.

On to B8, for which the EC50 was 18.4 nM.

B9 showed an EC50 of 0.33 nM.

As to B10, the EC50 is 1.31 nM.

The molecule B11 yielded an EC50 of 0.76 nM.

The molecule B12 displayed an EC50 of 0.5 nM.
